Data on six molecules can be found in PMC6570425, “Regulation of GLI1 by cis DNA elements and epigenetic marks”.

Sequences and labels used below:
B1: GBS #4 (dsDNA)
DNA 1: AGCATCCCGGGATCACCCACCGCGCCGGC
DNA 2: GCCGGCGCGGTGGGTGATCCCGGGATGCT
B2: GBS #6 (dsDNA)
DNA 1: TCTACACACAGACCACACAGGCAAAGCTC
DNA 2: GAGCTTTGCCTGTGTGGTCTGTGTGTAGA
B3: GBS #3 (dsDNA)
DNA 1: AGGGGAGATATGGGTGGGCTGTGGAACGC
DNA 2: GCGTTCCACAGCCCACCCATATCTCCCCT
B4: GBS #5 (dsDNA)
DNA 1: AAGGTCGAGTTGGGAGGTCTTGGATGCGG
DNA 2: CCGCATCCAAGACCTCCCAACTCGACCTT
B5: GBS #2 (dsDNA)
DNA 1: GGCGGCGACTTGGGTGGGCCGAGGAGGCA
DNA 2: TGCCTCCTCGGCCCACCCAAGTCGCCGCC
B6: GBS #1 (dsDNA)
DNA 1: CTCTGGCTCAGACCACCCTGCCTGCCCTT
DNA 2: AAGGGCAGGCAGGGTGGTCTGAGCCAGAG

Chain of GLI1 (aa 211-1106) (P08151 211-1106): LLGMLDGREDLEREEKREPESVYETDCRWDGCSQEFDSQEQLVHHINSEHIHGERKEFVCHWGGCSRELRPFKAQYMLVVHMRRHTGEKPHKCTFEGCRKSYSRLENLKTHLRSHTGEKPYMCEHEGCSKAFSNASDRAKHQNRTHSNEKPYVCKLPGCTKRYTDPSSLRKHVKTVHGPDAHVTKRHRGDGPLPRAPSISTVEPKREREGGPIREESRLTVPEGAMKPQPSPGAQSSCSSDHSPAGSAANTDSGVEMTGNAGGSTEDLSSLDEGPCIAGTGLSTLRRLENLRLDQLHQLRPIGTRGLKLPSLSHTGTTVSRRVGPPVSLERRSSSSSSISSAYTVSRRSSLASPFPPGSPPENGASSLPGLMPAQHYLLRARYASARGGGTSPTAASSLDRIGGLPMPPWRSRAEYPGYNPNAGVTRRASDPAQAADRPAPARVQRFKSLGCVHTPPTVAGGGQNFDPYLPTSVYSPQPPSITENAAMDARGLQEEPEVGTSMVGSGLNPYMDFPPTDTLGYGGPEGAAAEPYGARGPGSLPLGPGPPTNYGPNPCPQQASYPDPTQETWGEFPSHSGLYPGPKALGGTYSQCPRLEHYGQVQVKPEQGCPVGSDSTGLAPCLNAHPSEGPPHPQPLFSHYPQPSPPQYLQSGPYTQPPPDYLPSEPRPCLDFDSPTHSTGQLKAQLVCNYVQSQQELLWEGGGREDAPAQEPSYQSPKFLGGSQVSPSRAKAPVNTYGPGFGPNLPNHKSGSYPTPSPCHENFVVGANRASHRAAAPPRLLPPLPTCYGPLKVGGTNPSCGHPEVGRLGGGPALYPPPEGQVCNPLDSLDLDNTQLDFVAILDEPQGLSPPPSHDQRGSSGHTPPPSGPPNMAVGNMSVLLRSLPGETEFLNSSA
Chain of GLI2 (aa 84-355) (P10070 412-683): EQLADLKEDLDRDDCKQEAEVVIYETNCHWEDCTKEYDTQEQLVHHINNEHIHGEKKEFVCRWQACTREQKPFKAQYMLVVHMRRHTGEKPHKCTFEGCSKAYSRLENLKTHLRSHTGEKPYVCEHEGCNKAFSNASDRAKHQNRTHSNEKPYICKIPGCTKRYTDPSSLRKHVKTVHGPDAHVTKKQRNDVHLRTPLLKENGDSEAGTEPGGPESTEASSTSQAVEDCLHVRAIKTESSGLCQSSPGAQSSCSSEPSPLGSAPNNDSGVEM

One series addresses GLI2 (aa 84-355) (human, UniProt P10070-1 84-355). In words: EMSA; Roche DIG gel shift kit binding buffer (1X from 5X; composition, salt and pH not given), 155 fmol probe, 20 pmol competitor, 4 C 20 min, 5% TBE gel. The settings on record: protein: recombinant; tags: 6xHis; label: digoxigenin (or 32P); blunt.
With B1, the binding result is “binds”.
Same read-out and setting: then B2, with “binds”.
Same read-out and setting: then B3, with “binds”; and B4, with “binds”; and B5, with “binds”.
The same measure, in the same setting: then B6, with “binds”.

The next series concerns the target GLI1 (aa 211-1106) (human, UniProt P08151 211-1106). The series is described as above. Particulars: protein: recombinant; label: digoxigenin (or 32P); blunt.
For B1, the binding result was “binds”.
As for B2, the binding result is on record as “binds”.
For the molecule B3, the binding result was “binds”.
Still for that read-out and setting: to B4 belongs “binds”; to B5, “binds”; to B6, “binds”.
